# US20230348560A1
# Biological target: HLA-G1 isoform stably expressed on THP1 cells (human) (UniProt P17693)
# Assay: cell-based or functional assay
substance,measurement,value
full length ILT2 (pNT-110 SFG-ILT2-T2A-ΔCD19) (from UniProt Q8NHL6 24-650) (receptor),luciferase activity of THP1-HLA-G1-GFPffluc targets after 24 h coculture (E:T 5:1 and 1:1),> 100000 light units
